According to publication PMC3936715, “Structural and functional analysis of the three MIF4G domains of nonsense-mediated decay factor UPF2” (Nucleic Acids Research, 2013):

B1: UPF3b RRM domain (residues 42–143) (domain or fragment, UniProt Q9BZI7 42-143, looked up)
chain: RNKEKKEALSKVVIRRLPPTLTKEQLQEHLQPMPEHDYFEFFSNDTSLYPHMYARAYINFKNQEDIILFRDRFDGYVFLDNKGQEYPAIVEFAPFQKAAKKK
notes: UPF3b, RRM domain, residues 42-143; also called UPF3b RNP domain
B2: UPF2 (121–1227), all three MIF4G domains and the UPF1 binding domain (domain or fragment, human, UniProt Q9HAU5 121-1227, looked up)
chain: MKEKEESIQLHQEAWERHHLRKELRSKNQNAPDSRPEENFFSRLDSSLKKNTAFVKKLKTITEQQRDSLSHDFNGLNLSKYIAEAVASIVEAKLKISDVNCAVHLCSLFHQRYADFAPSLLQVWKKHFEARKEEKTPNITKLRTDLRFIAELTIVGIFTDKEGLSLIYEQLKNIINADRESHTHVSVVISFCRHCGDDIAGLVPRKVKSAAEKFNLSFPPSEIISPEKQQPFQNLLKEYFTSLTKHLKRDHRELQNTERQNRRILHSKGELSEDRHKQYEEFAMSYQKLLANSQSLADLLDENMPDLPQDKPTPEEHGPGIDIFTPGKPGEYDLEGGIWEDEDARNFYENLIDLKAFVPAILFKDNEKSCQNKESNKDDTKEAKESKENKEVSSPDDLELELENLEINDDTLELEGGDEAEDLTKKLLDEQEQEDEEASTGSHLKLIVDAFLQQLPNCVNRDLIDKAAMDFCMNMNTKANRKKLVRALFIVPRQRLDLLPFYARLVATLHPCMSDVAEDLCSMLRGDFRFHVRKKDQINIETKNKTVRFIGELTKFKMFTKNDTLHCLKMLLSDFSHHHIEMACTLLETCGRFLFRSPESHLRTSVLLEQMMRKKQAMHLDARYVTMVENAYYYCNPPPAEKTVKKKRPPLQEYVRKLLYKDLSKVTTEKVLRQMRKLPWQDQEVKDYVICCMINIWNVKYNSIHCVANLLAGLVLYQEDVGIHVVDGVLEDIRLGMEVNQPKFNQRRISSAKFLGELYNYRMVESAVIFRTLYSFTSFGVNPDGSPSSLDPPEHLFRIRLVCTILDTCGQYFDRGSSKRKLDCFLVYFQRYVWWKKSLEVWTKDHPFPIDIDYMISDTLELLRPKIKLCNSLEESIRQVQDLEREFLIKLGLVNDKDSKDSMTEGENLEEDEEEEEGGAETEEQSGNESEVNEPEEEEGSDNDDDEGEEEEEENTDYLTDSNKENETDEENTEVMIKGGGLKHVPCVEDEDFIQALDKMMLENLQQRSGESVKVHQLDVAIPLHLKSQLRKGPPLGGGEGEAESADTMPFVMLTRKGNKQQFKILNVPMSSQLAANHWNQQQAEQEERMRMKKLTLDINERQEQED
notes: UPF2, human, Q9HAU5, residues 121-1227; the host of this construct is told only in the Supplementary Material
B3: UPF2 MIF4G-3 domain (residues 761–1054) (domain or fragment, human, UniProt Q9HAU5 761-1054, looked up)
chain: EKTVKKKRPPLQEYVRKLLYKDLSKVTTEKVLRQMRKLPWQDQEVKDYVICCMINIWNVKYNSIHCVANLLAGLVLYQEDVGIHVVDGVLEDIRLGMEVNQPKFNQRRISSAKFLGELYNYRMVESAVIFRTLYSFTSFGVNPDGSPSSLDPPEHLFRIRLVCTILDTCGQYFDRGSSKRKLDCFLVYFQRYVWWKKSLEVWTKDHPFPIDIDYMISDTLELLRPKIKLCNSLEESIRQVQDLEREFLIKLGLVNDKDSKDSMTEGENLEEDEEEEEGGAETEEQSGNESEVNE
notes: UPF2, human, Q9HAU5, MIF4G-3 construct, residues 761-1054; Limits are printed for the construct 'which we used as substrate in our assays'; also called MIF4G domain 3
B4: preformed UPF2 MIF4G-3/UPF3b complex (complex)
chain 1: EKTVKKKRPPLQEYVRKLLYKDLSKVTTEKVLRQMRKLPWQDQEVKDYVICCMINIWNVKYNSIHCVANLLAGLVLYQEDVGIHVVDGVLEDIRLGMEVNQPKFNQRRISSAKFLGELYNYRMVESAVIFRTLYSFTSFGVNPDGSPSSLDPPEHLFRIRLVCTILDTCGQYFDRGSSKRKLDCFLVYFQRYVWWKKSLEVWTKDHPFPIDIDYMISDTLELLRPKIKLCNSLEESIRQVQDLEREFLIKLGLVNDKDSKDSMTEGENLEEDEEEEEGGAETEEQSGNESEVNE
chain 2: RNKEKKEALSKVVIRRLPPTLTKEQLQEHLQPMPEHDYFEFFSNDTSLYPHMYARAYINFKNQEDIILFRDRFDGYVFLDNKGQEYPAIVEFAPFQKAAKKK
notes: UPF2, human, Q9HAU5, MIF4G-3 construct, residues 761-1054; UPF3b, RRM domain, residues 42-143; also called UPF2 MIF4G-3 in complex with UPF3b; UPF2/UPF3b

Tests used:
[1] = target: B3; assay: SPR; competition: SMG1 immobilised; MIF4G-3 at constant 50 nM injected with 0, 50, 250, 500 nM UPF3b RRM domain; conditions: both partners purified
[2] = target: T1, SMG1 (full-length recombinant, wild-type, N-terminal SBP-tag) (UniProt Q96Q15 1-3661); assay: SPR; SMG1 immobilised via its N-terminal SBP-tag on a streptavidin (SA) chip, ~2000 RU, BIAcore 3000; analyte titrated at 25 µl/min; apparent KD from RUmax against concentration, one binding site model; conditions: both partners purified
T1 construct: SMG1, serine/threonine-protein kinase of the PIKK family, about 415 kDa, full-length, wild type; also called SMG1 kinase; wild-type SMG1; source: recombinant, purified; not shown: SBP, N-terminal, kept
T1 sequence (Q96Q15 whole entry): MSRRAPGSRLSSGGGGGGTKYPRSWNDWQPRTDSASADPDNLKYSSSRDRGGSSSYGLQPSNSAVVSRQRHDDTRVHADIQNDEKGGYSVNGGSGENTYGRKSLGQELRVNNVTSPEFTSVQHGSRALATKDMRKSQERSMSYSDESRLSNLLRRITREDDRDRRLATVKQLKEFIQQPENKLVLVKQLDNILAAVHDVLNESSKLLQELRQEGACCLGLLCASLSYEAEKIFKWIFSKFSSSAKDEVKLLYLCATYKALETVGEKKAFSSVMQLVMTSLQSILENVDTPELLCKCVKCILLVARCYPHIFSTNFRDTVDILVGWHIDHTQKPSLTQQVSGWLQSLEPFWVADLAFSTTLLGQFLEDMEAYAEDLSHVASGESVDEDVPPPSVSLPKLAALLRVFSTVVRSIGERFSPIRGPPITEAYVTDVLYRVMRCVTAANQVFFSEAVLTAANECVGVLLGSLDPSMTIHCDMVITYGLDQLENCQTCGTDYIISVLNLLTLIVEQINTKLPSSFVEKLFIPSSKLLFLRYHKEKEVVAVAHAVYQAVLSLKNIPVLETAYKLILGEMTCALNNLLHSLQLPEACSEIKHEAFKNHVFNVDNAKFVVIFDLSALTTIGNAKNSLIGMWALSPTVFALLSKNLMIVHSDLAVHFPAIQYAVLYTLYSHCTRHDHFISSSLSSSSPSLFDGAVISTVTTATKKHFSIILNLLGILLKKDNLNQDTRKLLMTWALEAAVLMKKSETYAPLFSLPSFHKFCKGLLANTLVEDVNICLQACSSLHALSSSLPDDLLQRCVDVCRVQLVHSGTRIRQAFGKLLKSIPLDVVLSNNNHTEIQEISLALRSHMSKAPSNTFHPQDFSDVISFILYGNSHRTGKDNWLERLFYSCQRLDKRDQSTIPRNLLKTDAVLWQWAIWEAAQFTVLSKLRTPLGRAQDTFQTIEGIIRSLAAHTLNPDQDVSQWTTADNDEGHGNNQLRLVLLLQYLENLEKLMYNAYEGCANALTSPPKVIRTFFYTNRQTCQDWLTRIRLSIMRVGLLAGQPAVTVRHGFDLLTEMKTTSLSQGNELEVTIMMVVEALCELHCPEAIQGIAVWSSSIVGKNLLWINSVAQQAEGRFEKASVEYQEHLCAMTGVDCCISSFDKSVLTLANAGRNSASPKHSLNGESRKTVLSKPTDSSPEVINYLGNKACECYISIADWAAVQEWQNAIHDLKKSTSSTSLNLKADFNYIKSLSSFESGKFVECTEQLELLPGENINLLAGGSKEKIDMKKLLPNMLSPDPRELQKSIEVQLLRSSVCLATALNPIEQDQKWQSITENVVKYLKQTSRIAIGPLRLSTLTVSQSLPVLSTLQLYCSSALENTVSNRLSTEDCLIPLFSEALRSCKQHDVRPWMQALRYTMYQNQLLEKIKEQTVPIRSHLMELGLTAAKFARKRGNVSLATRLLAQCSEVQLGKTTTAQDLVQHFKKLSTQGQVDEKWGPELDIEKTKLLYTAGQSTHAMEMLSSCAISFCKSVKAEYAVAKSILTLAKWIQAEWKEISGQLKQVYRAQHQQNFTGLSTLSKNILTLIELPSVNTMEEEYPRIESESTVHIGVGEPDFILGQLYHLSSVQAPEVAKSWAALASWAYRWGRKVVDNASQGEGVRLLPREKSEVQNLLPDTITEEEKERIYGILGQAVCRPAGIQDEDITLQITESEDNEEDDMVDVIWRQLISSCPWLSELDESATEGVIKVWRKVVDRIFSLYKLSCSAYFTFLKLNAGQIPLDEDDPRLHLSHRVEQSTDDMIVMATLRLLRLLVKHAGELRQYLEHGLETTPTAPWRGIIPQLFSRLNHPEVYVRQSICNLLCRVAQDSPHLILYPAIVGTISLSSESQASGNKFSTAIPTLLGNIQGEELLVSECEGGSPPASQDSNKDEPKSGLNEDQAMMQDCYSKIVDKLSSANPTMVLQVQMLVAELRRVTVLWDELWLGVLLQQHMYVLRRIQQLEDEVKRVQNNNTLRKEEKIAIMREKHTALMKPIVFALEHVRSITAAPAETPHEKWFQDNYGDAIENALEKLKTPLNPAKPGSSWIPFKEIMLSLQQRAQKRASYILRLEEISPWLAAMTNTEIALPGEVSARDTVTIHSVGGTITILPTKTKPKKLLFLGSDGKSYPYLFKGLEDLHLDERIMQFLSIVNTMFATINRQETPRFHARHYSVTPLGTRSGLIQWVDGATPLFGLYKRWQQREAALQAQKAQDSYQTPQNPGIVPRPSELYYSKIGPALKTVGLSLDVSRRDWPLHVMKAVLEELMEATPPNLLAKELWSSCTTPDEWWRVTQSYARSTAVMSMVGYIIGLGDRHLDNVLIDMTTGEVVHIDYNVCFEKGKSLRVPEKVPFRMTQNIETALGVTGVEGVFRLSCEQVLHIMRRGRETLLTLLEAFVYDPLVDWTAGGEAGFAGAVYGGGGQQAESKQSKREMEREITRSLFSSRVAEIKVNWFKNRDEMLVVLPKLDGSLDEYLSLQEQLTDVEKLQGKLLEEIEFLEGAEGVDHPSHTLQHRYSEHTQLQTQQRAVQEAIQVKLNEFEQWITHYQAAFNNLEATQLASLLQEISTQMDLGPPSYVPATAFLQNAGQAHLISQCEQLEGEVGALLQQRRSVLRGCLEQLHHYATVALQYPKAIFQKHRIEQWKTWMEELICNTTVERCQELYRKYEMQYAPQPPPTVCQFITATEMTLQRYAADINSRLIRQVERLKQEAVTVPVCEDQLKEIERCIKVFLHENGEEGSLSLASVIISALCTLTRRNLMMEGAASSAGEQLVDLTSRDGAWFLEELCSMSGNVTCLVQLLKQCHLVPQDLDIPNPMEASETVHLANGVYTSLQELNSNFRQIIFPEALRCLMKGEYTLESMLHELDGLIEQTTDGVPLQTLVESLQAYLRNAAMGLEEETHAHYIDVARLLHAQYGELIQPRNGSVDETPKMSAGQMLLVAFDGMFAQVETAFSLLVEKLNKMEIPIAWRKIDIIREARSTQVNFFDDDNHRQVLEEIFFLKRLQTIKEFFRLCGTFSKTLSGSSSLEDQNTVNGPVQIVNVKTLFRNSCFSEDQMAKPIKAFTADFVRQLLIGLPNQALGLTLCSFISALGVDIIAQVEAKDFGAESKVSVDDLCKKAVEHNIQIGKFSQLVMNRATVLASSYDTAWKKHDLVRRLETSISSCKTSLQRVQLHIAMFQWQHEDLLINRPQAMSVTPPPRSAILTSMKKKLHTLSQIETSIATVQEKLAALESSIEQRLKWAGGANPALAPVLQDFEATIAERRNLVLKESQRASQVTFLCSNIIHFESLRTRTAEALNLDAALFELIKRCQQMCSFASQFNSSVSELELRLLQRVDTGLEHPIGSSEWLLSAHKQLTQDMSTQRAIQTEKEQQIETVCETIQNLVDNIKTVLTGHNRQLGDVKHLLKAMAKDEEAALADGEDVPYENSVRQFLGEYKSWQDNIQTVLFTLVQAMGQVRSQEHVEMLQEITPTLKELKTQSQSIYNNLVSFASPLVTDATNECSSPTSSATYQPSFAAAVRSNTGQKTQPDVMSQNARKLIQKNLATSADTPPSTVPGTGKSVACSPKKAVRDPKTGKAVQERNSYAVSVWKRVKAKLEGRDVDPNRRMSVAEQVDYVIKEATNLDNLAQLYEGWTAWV

Binder | binding result [1] | Kd [2]
B1 | binds | 
B2 |  | 37 ± 5 nM
B3 |  | 60 ± 5 nM
B4 |  | 34 ± 2 nM
